In article PMC2330189 (Acta Crystallographica Section F: Structural Biology and …, 2007):

Target: the molecule itself
Test: SEC

B1: 1,3-propanediol dehydrogenase from Klebsiella pneumoniae (enzyme, UniProt Q59477 1-387, looked up)
chain: MSYRMFDYLVPNVNFFGPNAISVVGERCQLLGGKKALLVTDKGLRAIKDGAVDKTLHYLREAGIEVAIFDGVEPNPKDTNVRDGLAVFRREQCDIIVTVGGGSPHDCGKGIGIAATHEGDLYQYAGIETLTNPLPPIVAVNTTAGTASEVTRHCVLTNTETKVKFVIVSWRNLPSVSINDPLLMIGKPAALTAATGMDALTHAVEAYISKDANPVTDAAAMQAIRLIARNLRQAVALGSNLQARENMAYASLLAGMAFNNANLGYVHAMAHQLGGLYDMPHGVANAVLLPHVARYNLIANPEKFADIAELMGENITGLSTLDAAEKAIAAITRLSMDIGIPQHLRDLGVKEADFPYMAEMALKDGNAFSNPRKGNEQEIAAIFRQAF
**Q.** B1 was tested. Which “stoichiometry N” value did it give?
**A.** The value was 10.
